Publication PMC12881670, “Investigation into ligand selectivity and bias at the formyl peptide receptor family” (The Journal of Pharmacology and Experimental Therapeutics, 2025)

Legend:
[1] = target: T1, FLAG-tagged human FPR1 (Hs_FPR1) (human, UniProt P21462 1-350); assay: cell-based or functional assay
T1 sequence (looked up): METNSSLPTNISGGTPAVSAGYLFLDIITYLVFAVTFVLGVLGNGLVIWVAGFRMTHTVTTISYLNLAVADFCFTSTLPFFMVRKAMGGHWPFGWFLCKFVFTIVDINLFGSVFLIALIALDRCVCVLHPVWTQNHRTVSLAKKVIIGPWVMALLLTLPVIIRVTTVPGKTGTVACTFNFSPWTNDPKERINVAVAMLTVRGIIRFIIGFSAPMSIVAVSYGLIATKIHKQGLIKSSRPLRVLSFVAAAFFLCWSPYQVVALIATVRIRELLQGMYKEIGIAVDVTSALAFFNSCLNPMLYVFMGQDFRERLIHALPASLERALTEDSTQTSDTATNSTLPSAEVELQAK

[2] = target: T2, FLAG-tagged human FPR2 (Hs_FPR2) (human, UniProt P25090 1-351); assay: cell-based or functional assay
T2 sequence (looked up): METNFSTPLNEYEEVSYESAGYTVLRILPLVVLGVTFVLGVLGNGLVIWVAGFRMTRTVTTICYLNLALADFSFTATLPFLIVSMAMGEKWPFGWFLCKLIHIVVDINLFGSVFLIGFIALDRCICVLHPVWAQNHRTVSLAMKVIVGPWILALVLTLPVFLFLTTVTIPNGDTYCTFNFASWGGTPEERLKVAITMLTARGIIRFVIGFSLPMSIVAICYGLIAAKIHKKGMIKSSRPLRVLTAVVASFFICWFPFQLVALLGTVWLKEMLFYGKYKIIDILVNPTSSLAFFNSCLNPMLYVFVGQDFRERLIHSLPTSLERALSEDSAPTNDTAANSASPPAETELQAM

[3] = target: T3, FLAG-tagged mouse Fpr2 (Mm_Fpr2) (mouse, UniProt O88536 1-351); assay: cell-based or functional assay
T3 sequence (looked up): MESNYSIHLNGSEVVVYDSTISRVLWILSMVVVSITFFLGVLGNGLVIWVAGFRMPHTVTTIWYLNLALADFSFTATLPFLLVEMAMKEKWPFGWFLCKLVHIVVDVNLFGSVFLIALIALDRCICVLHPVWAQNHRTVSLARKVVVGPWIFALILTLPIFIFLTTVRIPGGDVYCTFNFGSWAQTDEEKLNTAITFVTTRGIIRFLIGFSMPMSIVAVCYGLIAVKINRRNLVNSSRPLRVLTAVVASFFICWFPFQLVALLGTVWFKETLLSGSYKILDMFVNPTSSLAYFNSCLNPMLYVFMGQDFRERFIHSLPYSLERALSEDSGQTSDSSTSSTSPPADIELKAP

[4] = target: T4, FLAG-tagged mouse Fpr1 (Mm_Fpr1) (mouse, UniProt P33766 1-364); assay: cell-based or functional assay
T4 sequence (looked up): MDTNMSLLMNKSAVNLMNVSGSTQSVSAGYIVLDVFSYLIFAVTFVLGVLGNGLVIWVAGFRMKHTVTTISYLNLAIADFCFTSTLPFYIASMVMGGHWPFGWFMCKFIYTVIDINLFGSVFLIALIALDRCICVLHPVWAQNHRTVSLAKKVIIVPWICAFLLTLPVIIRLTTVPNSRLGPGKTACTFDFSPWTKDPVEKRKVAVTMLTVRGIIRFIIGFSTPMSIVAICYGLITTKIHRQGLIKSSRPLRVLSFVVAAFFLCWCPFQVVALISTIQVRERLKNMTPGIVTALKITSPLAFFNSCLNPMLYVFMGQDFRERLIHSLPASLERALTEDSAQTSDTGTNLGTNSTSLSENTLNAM

[5] = target: T1, FLAG-tagged human FPR1 (Hs_FPR1); assay: cell-based or functional assay; remark: listed apart in the source
[6] = target: T2, FLAG-tagged human FPR2 (Hs_FPR2); assay: cell-based or functional assay; remark: listed apart in the source
[7] = target: T3, FLAG-tagged mouse Fpr2 (Mm_Fpr2); assay: cell-based or functional assay; remark: listed apart in the source
[8] = target: T4, FLAG-tagged mouse Fpr1 (Mm_Fpr1); assay: cell-based or functional assay; remark: listed apart in the source
[9] = target: T1, FLAG-tagged human FPR1 (Hs_FPR1); assay: flow cytometry on cells; competition binding: HEK293 cells stably expressing the receptor, lifted in PBS, on ice 90 min with 10 nM K(5/6-FAM)-WKYMVm and increasing unlabeled ligand; mean fluorescence of 5000 cells as % of that without competitor; One site-Fit logIC50
[10] = target: T2, FLAG-tagged human FPR2 (Hs_FPR2); assay: as above
[11] = target: T3, FLAG-tagged mouse Fpr2 (Mm_Fpr2); assay: as above
[12] = target: T4, FLAG-tagged mouse Fpr1 (Mm_Fpr1); assay: as above
[13] = target: T5, FLAG-Mm_Fpr1 C-terminally fused to Renilla Luciferase 8 (mouse, UniProt P33766 1-364); assay: cell-based or functional assay
T5 sequence (looked up): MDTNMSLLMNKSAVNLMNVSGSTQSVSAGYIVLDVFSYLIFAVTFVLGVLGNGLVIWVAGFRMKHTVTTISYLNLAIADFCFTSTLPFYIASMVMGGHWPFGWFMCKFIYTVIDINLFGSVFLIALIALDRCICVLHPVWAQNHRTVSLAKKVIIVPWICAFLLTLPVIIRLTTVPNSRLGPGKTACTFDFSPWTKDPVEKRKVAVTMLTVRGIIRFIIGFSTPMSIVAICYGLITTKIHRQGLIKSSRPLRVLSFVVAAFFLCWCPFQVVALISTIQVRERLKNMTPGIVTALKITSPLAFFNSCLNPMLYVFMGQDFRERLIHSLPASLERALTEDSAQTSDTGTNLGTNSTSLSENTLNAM

[14] = target: T6, FLAG-Hs_FPR2 C-terminally fused to Renilla Luciferase 8 (human, UniProt P25090 1-351); assay: cell-based or functional assay
T6 sequence (looked up): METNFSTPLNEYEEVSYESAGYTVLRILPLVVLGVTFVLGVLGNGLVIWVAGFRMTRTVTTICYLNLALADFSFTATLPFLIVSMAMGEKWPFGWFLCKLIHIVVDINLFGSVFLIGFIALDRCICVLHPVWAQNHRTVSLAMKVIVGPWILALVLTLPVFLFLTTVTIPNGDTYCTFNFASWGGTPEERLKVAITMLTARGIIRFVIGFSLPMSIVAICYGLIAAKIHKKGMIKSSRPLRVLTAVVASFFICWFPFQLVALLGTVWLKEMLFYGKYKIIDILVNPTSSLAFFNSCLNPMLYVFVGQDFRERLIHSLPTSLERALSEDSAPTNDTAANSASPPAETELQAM

[15] = target: T7, FLAG-Mm_Fpr2 C-terminally fused to Renilla Luciferase 8 (mouse, UniProt O88536 1-351); assay: cell-based or functional assay
T7 sequence (looked up): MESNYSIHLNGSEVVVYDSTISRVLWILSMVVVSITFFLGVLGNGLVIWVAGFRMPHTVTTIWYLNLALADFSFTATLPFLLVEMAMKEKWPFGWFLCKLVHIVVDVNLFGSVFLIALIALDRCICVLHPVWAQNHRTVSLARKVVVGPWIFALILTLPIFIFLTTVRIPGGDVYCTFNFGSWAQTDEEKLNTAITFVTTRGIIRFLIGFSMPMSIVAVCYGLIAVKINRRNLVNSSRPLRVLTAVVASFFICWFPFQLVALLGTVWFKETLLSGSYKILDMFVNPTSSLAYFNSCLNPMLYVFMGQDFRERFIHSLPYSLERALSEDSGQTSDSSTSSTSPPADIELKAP

[16] = target: T8, FLAG-Hs_FPR1 C-terminally fused to Renilla Luciferase 8 (human, UniProt P21462 1-350); assay: cell-based or functional assay
T8 sequence (looked up): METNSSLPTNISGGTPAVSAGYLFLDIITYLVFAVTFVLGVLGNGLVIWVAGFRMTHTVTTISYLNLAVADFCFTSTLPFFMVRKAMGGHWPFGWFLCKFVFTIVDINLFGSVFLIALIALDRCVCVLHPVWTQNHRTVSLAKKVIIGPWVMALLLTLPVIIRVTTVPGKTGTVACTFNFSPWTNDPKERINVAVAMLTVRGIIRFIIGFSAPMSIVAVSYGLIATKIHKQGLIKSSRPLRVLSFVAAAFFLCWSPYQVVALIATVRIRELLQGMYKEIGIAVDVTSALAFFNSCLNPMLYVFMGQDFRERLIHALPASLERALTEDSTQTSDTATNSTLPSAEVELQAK

[17] = target: T5, FLAG-Mm_Fpr1 C-terminally fused to …; assay: cell-based or functional assay; remark: listed apart in the source
[18] = target: T6, FLAG-Hs_FPR2 C-terminally fused to …; assay: cell-based or functional assay; remark: listed apart in the source
[19] = target: T7, FLAG-Mm_Fpr2 C-terminally fused to …; assay: cell-based or functional assay; remark: listed apart in the source
[20] = target: T8, FLAG-Hs_FPR1 C-terminally fused to …; assay: cell-based or functional assay; remark: listed apart in the source

B1: WKYMVM (peptide)
peptide: WKYMVM
notes: synthetic hexapeptide, all L residues; also called L-enantiomer of WKYMVm; source: bought: Tocris
Q: For B1, which “ERK1/2 phosphorylation (Western blot): Emax (% of 1 μM WKYMVm)” value (“ERK1/2 phosphorylation … (% of 1 μM WKYMVm)” for short) [1] is on record?
A: 141%

Q: And the “ERK1/2 phosphorylation … (% of 1 μM WKYMVm)” value [2]?
A: 125%

Q: What about the “ERK1/2 phosphorylation … (% of 1 μM WKYMVm)” value [3] of the same binder?
A: 128%

Q: What about the “ERK1/2 phosphorylation (Western blot): Log EC50 (M)” value [3] of the same binder?
A: -7.91 log M

Q: And the “ERK1/2 phosphorylation … (% of 1 μM WKYMVm)” value [4]?
A: 118%

Q: And the “ERK1/2 phosphorylation (Western blot): Log EC50 (M)” value [4]?
A: -7.08 log M

Q: And the “receptor internalization (flow cytometry): Emax (% of 1 μM WKYMVm)” value (from here on “receptor internalization … (% of 1 μM WKYMVm)”) [5]?
A: 101%

Q: What about the “receptor internalization … (% of 1 μM WKYMVm)” value [6] of the same binder?
A: 82.3%

Q: What about the “receptor internalization … (% of 1 μM WKYMVm)” value [7] of the same binder?
A: 75.6%

Q: And the “receptor internalization (flow cytometry): Log EC50 (M)” value [7]?
A: -6.96 log M

Q: What about the “receptor internalization … (% of 1 μM WKYMVm)” value [8] of the same binder?
A: 99.4%

Q: And the “receptor internalization (flow cytometry): Log EC50 (M)” value [8]?
A: -6.29 log M

Q: What about the “Max Comp (%)” value [9] of the same binder?
A: 94.9%

Q: What about the “Max Comp (%)” value [10] of the same binder?
A: 99.8%

Q: And the “Log IC50” value [11]?
A: -6.23 log M

Q: And the “Max Comp (%)” value [11]?
A: 100%

Q: What about the “Log IC50” value [12] of the same binder?
A: -5.55 log M

Q: And the “Max Comp (%)” value [12]?
A: 85.4%

Q: What about the “BRET of receptor-RLuc8 with Venus-mGsi: Emax (% of 1 μM WKYMVm)” value [13] of the same binder?
A: 37.5%

Q: What about the “BRET of receptor-RLuc8 with Venus-mGsi: Log EC50 (M)” value [13] of the same binder?
A: -5.68 log M

Q: And the “BRET of receptor-RLuc8 with Venus-mGsi: Emax (% of 1 μM WKYMVm)” value [14]?
A: 79.2%

Q: What about the “BRET of receptor-RLuc8 with Venus-mGsi: Emax (% of 1 μM WKYMVm)” value [15] of the same binder?
A: 87.9%

Q: What about the “BRET of receptor-RLuc8 with Venus-mGsi: Log EC50 (M)” value [15] of the same binder?
A: -6.49 log M

Q: And the “BRET of receptor-RLuc8 with Venus-mGsi: Emax (% of 1 μM WKYMVm)” value [16]?
A: 44.1%

Q: What about the “BRET of receptor-RLuc8 with Arrestin 3-YFP: Emax (% of 1 μM WKYMVm)” value [17] of the same binder?
A: 83.1%

Q: What about the “BRET of receptor-RLuc8 with Arrestin 3-YFP: Log EC50 (M)” value [17] of the same binder?
A: -5.56 log M

Q: And the “BRET of receptor-RLuc8 with Arrestin 3-YFP: Emax (% of 1 μM WKYMVm)” value [18]?
A: 94.8%

Q: And the “BRET of receptor-RLuc8 with Arrestin 3-YFP: Emax (% of 1 μM WKYMVm)” value [19]?
A: 94.3%

Q: What about the “BRET of receptor-RLuc8 with Arrestin 3-YFP: Log EC50 (M)” value [19] of the same binder?
A: -6.59 log M

Q: What about the “BRET of receptor-RLuc8 with Arrestin 3-YFP: Emax (% of 1 μM WKYMVm)” value [20] of the same binder?
A: 75%
